Measured values as given in US20250043302A1, “MUTATED HYDROXYPHENYLPYRUVATE DIOXYGENASE POLYPEPTIDE, AND CODING GENE AND USE THEREOF” (BEIJING DABEINONG BIOTECHNOLOGY CO., LTD., priority 2021, published 2025).
Changes are numbered by the printed parent chain. Names may count otherwise.

B1: AsHPPDm-A111T-F372A-02: nucleotide sequence encoding Avena sativa HPPD with A111T+F372A; vector DBN11781 (nucleic acid)
DNA: ATGCCACCTACTCCAGCTACAGCTACTGGTGCTGCTGCTGCTGCCGTTACTCCTGAGCACGCTGCCAGGTCATTCCCCAGGGTGGTTCGCGTGAACCCCAGATCTGATAGGTTCCCAGTTCTGAGCTTCCACCATGTTGAGCTGTGGTGCGCTGATGCTGCTTCTGCTGCTGGCAGGTTCTCTTTCGCTCTTGGTGCTCCACTCGCTGCTAGATCTGATCTGTCTACAGGAAATAGCGCTCATGCCTCACTCCTGCTTCGCTCAGGTGCTTTGGCCTTCCTCTTCACCGCTCCATATGCTCCCCCACCTCAGGAGGCTGCTACTGCTGCTACTACAGCCTCCATTCCAAGCTTCTCAGCTGATGCCGCTAGAACCTTCGCTGCTGCTCATGGACTTGCCGTGAGGTCTGTTGGTGTTCGCGTGGCTGATGCTGCTGAGGCTTTCAGAGTTTCCGTTGCCGGCGGAGCTAGGCCAGCTTTCGCTCCTGCTGATTTGGGACATGGTTTCGGCCTGGCTGAGGTTGAGCTTTACGGTGACGTGGTTCTCCGCTTCGTGTCTTACCCAGATGAGACTGACCTGCCTTTCCTTCCCGGCTTCGAGAGAGTTTCCTCTCCTGGTGCCGTGGATTACGGCCTGACAAGGTTCGACCACGTGGTTGGAAACGTTCCCGAGATGGCTCCAGTGATCGATTACATGAAGGGCTTCCTTGGATTCCATGAGTTCGCCGAGTTCACTGCTGAGGACGTGGGAACCACTGAGTCCGGTTTGAACTCTGTGGTTCTCGCCAACAATTCTGAGGCTGTTTTGCTCCCTCTGAATGAGCCTGTGCATGGAACCAAGAGGAGAAGCCAGATTCAAACTTACCTGGAGTACCACGGTGGCCCTGGAGTTCAGCATATCGCCCTTGCTTCTAATGATGTGTTGCGCACACTCAGAGAGATGCGCGCCAGAACCCCCATGGGAGGTTTCGAGTTCATGGCCCCACCACAGGCTAAGTACTACGAGGGCGTTAGAAGGATTGCTGGAGACGTGTTGAGCGAGGAGCAGATCAAGGAGTGCCAAGAGCTGGGTGTTCTTGTGGATAGGGATGACCAGGGCGTTCTGCTTCAAATTGCCACTAAGCCAGTGGGCGACCGCCCTACATTCTTCCTTGAGATGATTCAAAGAATCGGCTGCATGGAGAAGGATGAGGTTGGACAGGAGTACCAAAAGGGCGGATGCGGTGGCTTCGGAAAGGGTAACTTCAGCGAGTTGTTCAAGTCAATCGAGGACTACGAGAAGAGCCTCGAGGTGAAGCAGTCAGTGGTTGCCCAAAAGTCCTGA
modifications: AsHPPDm-A111T-F372A-02 Nucleotide Sequence
notes: vector DBN11781
B2: AsHPPDm-A111T-F383W-02: nucleotide sequence encoding Avena sativa HPPD with A111T+F383W; vector DBN11782 (nucleic acid)
DNA: B1 DNA with G1114T, C1115T, T1148G, C1149G
modifications: AsHPPDm-A111T-F383W-02 Nucleotide Sequence
notes: vector DBN11782

Tests used:
[1] = test system: Arabidopsis thaliana T1 plants; experiment: Isoxaflutole tolerance of transgenic Arabidopsis thaliana T1 plants (spray, bleached leaf area grade, damage score); format: in vivo; settings: Table 11; for Classification and statistics of the grade of pesticide damage Grade 0: number of plants at grade 0; for Classification and statistics of the grade of pesticide damage Grade 1: number of plants at grade 1; for Classification and statistics of the grade of pesticide damage Grade 2: number of plants at grade 2; for Classification and statistics of the grade of pesticide damage Grade 3: number of plants at grade 3; for Scores: pesticide damage score;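 for Scores: Weighted damage index from 0 to 100 where higher means more damage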
Text: (§1) T1 transformants were initially selected from the untransformed seeds using a glufosinate selection scheme. The Arabidopsis thaliana T1 plants (AsHPPD-02) into which the AsHPPD-02 nucleotide sequence was introduced, the Arabidopsis thaliana T1 plants (AsHPPDm-F372A-02) into which the AsHPPDm-F372A-02 nucleotide sequence was introduced, the Arabidopsis thaliana T1 plants (AsHPPDm-F383W-02) into which the AsHPPDm-F383W-02 nucleotide sequence was introduced, the Arabidopsis thaliana T1 plants (AsHPPDm-F372A-F383W-02) into which the AsHPPDm-F372A-F383W-02 nucleotide sequence was introduced, the Arabidopsis thaliana T1 plants (DBN11726N) into which the control recombinant expression vector DBN11726N was introduced, and the wild-type Arabidopsis thaliana plants (CK) (18 days after sowing) were sprayed respectively with topramezone at three concentrations (100 g ai/ha (four-fold field concentration, 4×), 200 g ai/ha (eight-fold field concentration, 8×), and 0 g ai/ha (water, 0×)), isoxaflutole at three concentrations (140 g ai/ha (two-fold field concentration, 2×), 280 g ai/ha (four-fold field concentration, 4×), and 0 g ai/ha (water, 0×)), and mesotrione at three concentrations (210 g ai/ha (two-fold field concentration, […]), 420 g ai/ha (four-fold field concentration, 4×), and 0 g ai/ha (water, 0×)), to determine the tolerance of Arabidopsis thaliana to the herbicides. The degree of damage caused by the herbicide was measured for each plant according to the proportion of bleached leaf area (the proportion of bleached leaf area=bleached leaf area/total leaf area×100%) 7 days after spraying (7 DAT): the case where there is basically no bleached phenotype is defined as grade 0, the case where the proportion of bleached leaf area is less than 50% is defined as grade 1, the case where the proportion of bleached leaf area is more than 50% is defined as grade 2, and the case where the proportion of bleached leaf area is 100% grade is defined as grade 3.
(§2) According to the method as described above in point 6 of Example 1, the aforementioned Arabidopsis thaliana T1 plants and wild-type Arabidopsis thaliana plants (CK) (18 days after sowing) were sprayed respectively with topramezone at three concentrations (25 g ai/ha (one-fold field concentration, 1×). 100 g ai/ha (four-fold field concentration, 4×), and 0 g ai/ha (water, 0×)), isoxaflutole at three concentrations (35 g ai/ha (half-fold field concentration, 0.5×). 70 g ai/ha (one-fold field concentration, 1×), and 0 g ai/ha (water, 0×)), and mesotrione at three concentrations (52.5 g ai/ha (half-fold field concentration, 0.5×), 105 g ai/ha (one-fold field concentration, 1×), and 0 g ai/ha (water, 0×)) to detect the tolerance of Arabidopsis thaliana to the herbicides.
(§3) According to the method as described above in point 6 of Example 1, the aforementioned Arabidopsis thaliana T1 plants and wild-type Arabidopsis thaliana plants (CK) (18 days after sowing) were sprayed with topramezone at three different concentrations (i.e., 100 g ai/ha (four-fold field concentration, 4×), 200 g ai/ha (eight-fold field concentration, 8×) and 0 g ai/ha (water, 0×)), isoxaflutole at three different concentrations (i.e., 140 g ai/ha (two-fold field concentration, 2×), 280 g ai/ha (four-fold field concentration, 4×) and 0 g ai/ha (water, 0×)), and mesotrione at three different concentrations (i.e., 210 g ai/ha (two-fold field concentration, 2×), 420 g ai/ha (four-fold field concentration, 4×) and 0 g ai/ha (water, 0×)) respectively to detect the herbicide tolerance of Arabidopsis thaliana. […]

[2] = test system: Arabidopsis thaliana T1 plants; experiment: Mesotrione tolerance of transgenic Arabidopsis thaliana T1 plants (spray, bleached leaf area grade, damage score); format: in vivo; parameters: Scores: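 damage score 0-100 computed as Σ(N×S)/(T×M)×100 over grades 0-3 with higher meaning more damage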; settings: Table 12; for Classification and statistics of the grade of pesticide damage Grade 0: number of plants at grade 0; for Classification and statistics of the grade of pesticide damage Grade 1: number of plants at grade 1; for Classification and statistics of the grade of pesticide damage Grade 2: number of plants at grade 2; for Classification and statistics of the grade of pesticide damage Grade 3: number of plants at grade 3; for Scores: pesticide damage score
Text: as §1, §2, §3

Molecule | Resistance evaluation ([1]; isoxaflutole 140 g ai/ha (2×)) | Classification and statistics of the grade of pesticide damage Grade 0 ([1]; isoxaflutole 140 g ai/ha (2×)) | Classification and statistics of the grade of pesticide damage Grade 1 ([1]; isoxaflutole 140 g ai/ha (2×)) | Classification and statistics of the grade of pesticide damage Grade 2 ([1]; isoxaflutole 140 g ai/ha (2×)) | Classification and statistics of the grade of pesticide damage Grade 3 ([1]; isoxaflutole 140 g ai/ha (2×)) | Scores ([1]; isoxaflutole 140 g ai/ha (2×)) | Resistance evaluation ([1]; isoxaflutole 280 g ai/ha (4×)) | Classification and statistics of the grade of pesticide damage Grade 0 ([1]; isoxaflutole 280 g ai/ha (4×)) | Classification and statistics of the grade of pesticide damage Grade 1 ([1]; isoxaflutole 280 g ai/ha (4×)) | Classification and statistics of the grade of pesticide damage Grade 2 ([1]; isoxaflutole 280 g ai/ha (4×)) | Classification and statistics of the grade of pesticide damage Grade 3 ([1]; isoxaflutole 280 g ai/ha (4×)) | Scores ([1]; isoxaflutole 280 g ai/ha (4×)) | Resistance evaluation ([2]; mesotrione 210 g ai/ha (2×)) | Classification and statistics of the grade of pesticide damage Grade 0 ([2]; mesotrione 210 g ai/ha (2×)) | Classification and statistics of the grade of pesticide damage Grade 1 ([2]; mesotrione 210 g ai/ha (2×)) | Classification and statistics of the grade of pesticide damage Grade 2 ([2]; mesotrione 210 g ai/ha (2×)) | Classification and statistics of the grade of pesticide damage Grade 3 ([2]; mesotrione 210 g ai/ha (2×)) | Scores ([2]; mesotrione 210 g ai/ha (2×)) | Resistance evaluation ([2]; mesotrione 420 g ai/ha (4×)) | Classification and statistics of the grade of pesticide damage Grade 0 ([2]; mesotrione 420 g ai/ha (4×)) | also measured
B1 | Moderately | 5 | 8 | 1 | 2 | 33 | Poorly resistant | 0 | 0 | 16 | 0 | 67 | Moderately | 5 | 8 | 3 | 0 | 29 | Poorly resistant | 0 | Classification and statistics of the grade of pesticide damage Grade 1 ([2]; mesotrione 420 g ai/ha (4×)): 8; Classification and statistics of the grade of pesticide damage Grade 2 ([2]; mesotrione 420 g ai/ha (4×)): 7; Classification and statistics of the grade of pesticide damage Grade 3 ([2]; mesotrione 420 g ai/ha (4×)): 1; Scores ([2]; mesotrione 420 g ai/ha (4×)): 52
B2 | Moderately | 6 | 8 | 2 | 0 | 25 | Poorly resistant | 4 | 4 | 8 | 0 | 42 | Moderately | 4 | 10 | 2 | 0 | 29 | Poorly resistant | 0 | Classification and statistics of the grade of pesticide damage Grade 1 ([2]; mesotrione 420 g ai/ha (4×)): 2; Classification and statistics of the grade of pesticide damage Grade 2 ([2]; mesotrione 420 g ai/ha (4×)): 13; Classification and statistics of the grade of pesticide damage Grade 3 ([2]; mesotrione 420 g ai/ha (4×)): 1; Scores ([2]; mesotrione 420 g ai/ha (4×)): 65
